Results as given in publication PMC9406121.

Legend:
[1] = biological target: DT390-IL-13 single-chain fusion cytotoxin (monomer) (Corynebacterium diphtheriae | not stated); assay: SEC-MALS; SEC-MALS-DLS, Superose 6 Increase 10/300 GL, 4 °C, PBS pH 7.4
[2] = biological target: extracellular domain of IL-13-RA2 human recombinant receptor protein (human) (UniProt Q14627); assay: ELISA
Sequence of UniProt Q14627 (Q14627 27-343): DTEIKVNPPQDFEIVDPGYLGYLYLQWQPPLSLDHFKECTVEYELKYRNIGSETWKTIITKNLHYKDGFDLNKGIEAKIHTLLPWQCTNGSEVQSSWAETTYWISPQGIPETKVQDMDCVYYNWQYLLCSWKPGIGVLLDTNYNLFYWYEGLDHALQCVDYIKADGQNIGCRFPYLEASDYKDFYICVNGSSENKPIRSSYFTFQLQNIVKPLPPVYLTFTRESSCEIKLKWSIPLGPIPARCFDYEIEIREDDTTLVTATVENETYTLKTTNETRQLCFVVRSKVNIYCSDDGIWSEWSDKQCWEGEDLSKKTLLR

Substance	stoichiometry N [1]	EC50 [2] [nM]	Kd [2] [nM]
DT390-IL-13 single-chain fusion cytotoxin (monomer)	2	1.9	0.0674
DT390-IL-13 single-chain fusion cytotoxin, dimer (complex)		6.4	
DT390-IL-13 single-chain fusion cytotoxin, oligomers (complex)		6.8	
